In the supplement of paper PMC10065799, “High-throughput profiling of sequence recognition by tyrosine kinases and SH2 domains using bacterial peptide display” (eLife, 2023):

What was measured:
[1] = biological target: Jak2 (UniProt O60674); experiment: phosphorylation enrichment, bacterial display (enrichment ratio); higher = better substrate or ligand; peptides without Tyr show the background
[2] = test system: c-Src; experiment: as above
[3] = test system: AncSZ; experiment: as above
[4] = biological target: Fyn (UniProt P06241); experiment: as above
[5] = test system: Fer (mouse); experiment: as above
[6] = biological target: FGFR1 (UniProt P11362); experiment: as above
[7] = biological target: EPHB2 (UniProt P29323); experiment: as above
[8] = biological target: MERTK (UniProt Q12866); experiment: as above
[9] = test system: c-Abl (mouse); experiment: as above
[10] = biological target: EPHB1 (UniProt P54762); experiment: as above
[11] = biological target: Hck (UniProt P08631); experiment: as above
[12] = biological target: FGFR3 (UniProt P22607); experiment: as above
[13] = biological target: Fes (UniProt P07332); experiment: as above
[14] = biological target: SHP2-C SH2; experiment: SH2 binding enrichment of the phosphorylated peptide, bacterial display (enrichment ratio); higher = better substrate or ligand; peptides without Tyr show the background
[15] = biological target: Grb2 SH2 (UniProt P62993); experiment: as above
[16] = biological target: c-Src SH2; experiment: as above
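For SH2 binding enrichment of the phosphorylated peptide, bacterial display in this document: peptide library displayed on the E. coli surface as eCPX fusions, selected cells deep-sequenced, score is each peptide's frequency after selection divided by its frequency in the input.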
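For phosphorylation enrichment, bacterial display in this document: 11-residue human phosphosite peptides and single-mutation variants displayed on the E. coli surface, counted by deep sequencing, each peptide's frequency after selection divided by its frequency in the unselected input library; frequency after pTyr selection over input frequency; kinase dosed for 20-30% of maximal phosphorylation in three min.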

Chain of Grb2 SH2 (P62993 whole entry, looked up): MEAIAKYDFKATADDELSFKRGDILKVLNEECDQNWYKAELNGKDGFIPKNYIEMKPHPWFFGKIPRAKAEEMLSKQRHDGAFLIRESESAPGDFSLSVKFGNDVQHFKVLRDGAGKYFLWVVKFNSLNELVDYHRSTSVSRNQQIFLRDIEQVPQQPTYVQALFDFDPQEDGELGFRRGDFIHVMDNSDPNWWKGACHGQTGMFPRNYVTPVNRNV
Chain of Fes (P07332 whole entry, looked up): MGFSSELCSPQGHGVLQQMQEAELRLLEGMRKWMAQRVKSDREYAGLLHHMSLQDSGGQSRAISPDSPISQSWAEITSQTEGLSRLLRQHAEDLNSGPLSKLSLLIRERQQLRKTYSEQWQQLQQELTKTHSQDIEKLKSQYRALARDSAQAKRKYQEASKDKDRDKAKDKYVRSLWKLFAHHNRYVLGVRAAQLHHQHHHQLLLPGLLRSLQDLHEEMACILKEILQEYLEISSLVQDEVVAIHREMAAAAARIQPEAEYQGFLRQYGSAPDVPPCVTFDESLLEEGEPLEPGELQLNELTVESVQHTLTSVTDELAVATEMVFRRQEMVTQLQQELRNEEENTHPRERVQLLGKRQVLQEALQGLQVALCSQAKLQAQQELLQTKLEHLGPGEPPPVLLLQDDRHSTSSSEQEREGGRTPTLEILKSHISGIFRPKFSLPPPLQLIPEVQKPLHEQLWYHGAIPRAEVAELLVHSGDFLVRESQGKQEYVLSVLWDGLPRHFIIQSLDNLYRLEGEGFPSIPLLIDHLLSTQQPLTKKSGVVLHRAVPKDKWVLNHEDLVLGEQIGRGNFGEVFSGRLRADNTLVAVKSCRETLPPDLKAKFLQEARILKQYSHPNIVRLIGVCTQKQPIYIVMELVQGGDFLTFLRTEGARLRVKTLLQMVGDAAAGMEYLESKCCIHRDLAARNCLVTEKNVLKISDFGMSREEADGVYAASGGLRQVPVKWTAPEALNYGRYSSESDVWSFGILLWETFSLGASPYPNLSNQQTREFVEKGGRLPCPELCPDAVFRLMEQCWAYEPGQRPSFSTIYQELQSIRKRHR
Chain of EPHB1 (P54762 whole entry, looked up): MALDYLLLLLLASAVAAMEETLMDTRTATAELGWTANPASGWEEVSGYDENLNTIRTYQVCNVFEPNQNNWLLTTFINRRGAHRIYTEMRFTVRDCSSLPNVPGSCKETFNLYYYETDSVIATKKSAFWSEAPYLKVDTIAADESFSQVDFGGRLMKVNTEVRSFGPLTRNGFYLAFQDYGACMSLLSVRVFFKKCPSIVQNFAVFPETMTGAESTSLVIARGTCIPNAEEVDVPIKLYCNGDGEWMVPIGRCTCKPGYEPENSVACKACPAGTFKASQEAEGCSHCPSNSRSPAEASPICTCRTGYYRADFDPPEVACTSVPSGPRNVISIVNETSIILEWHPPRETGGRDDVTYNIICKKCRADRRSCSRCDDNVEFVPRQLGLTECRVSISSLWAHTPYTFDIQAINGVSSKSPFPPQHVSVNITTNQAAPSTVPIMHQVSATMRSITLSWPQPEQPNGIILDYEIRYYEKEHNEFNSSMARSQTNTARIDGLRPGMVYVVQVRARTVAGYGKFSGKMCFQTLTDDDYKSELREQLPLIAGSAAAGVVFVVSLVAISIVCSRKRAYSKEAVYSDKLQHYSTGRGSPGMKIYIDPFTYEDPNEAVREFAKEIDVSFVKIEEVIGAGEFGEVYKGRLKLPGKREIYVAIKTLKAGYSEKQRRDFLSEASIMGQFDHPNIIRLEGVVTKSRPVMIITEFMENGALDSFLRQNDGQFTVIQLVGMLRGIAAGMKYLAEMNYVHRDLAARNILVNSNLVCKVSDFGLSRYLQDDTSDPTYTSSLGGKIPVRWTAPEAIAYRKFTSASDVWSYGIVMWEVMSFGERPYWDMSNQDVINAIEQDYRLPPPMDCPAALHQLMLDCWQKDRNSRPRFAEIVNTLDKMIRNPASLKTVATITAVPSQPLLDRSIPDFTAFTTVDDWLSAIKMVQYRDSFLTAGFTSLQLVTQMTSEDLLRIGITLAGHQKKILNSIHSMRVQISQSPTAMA
Chain of MERTK (Q12866 whole entry, looked up): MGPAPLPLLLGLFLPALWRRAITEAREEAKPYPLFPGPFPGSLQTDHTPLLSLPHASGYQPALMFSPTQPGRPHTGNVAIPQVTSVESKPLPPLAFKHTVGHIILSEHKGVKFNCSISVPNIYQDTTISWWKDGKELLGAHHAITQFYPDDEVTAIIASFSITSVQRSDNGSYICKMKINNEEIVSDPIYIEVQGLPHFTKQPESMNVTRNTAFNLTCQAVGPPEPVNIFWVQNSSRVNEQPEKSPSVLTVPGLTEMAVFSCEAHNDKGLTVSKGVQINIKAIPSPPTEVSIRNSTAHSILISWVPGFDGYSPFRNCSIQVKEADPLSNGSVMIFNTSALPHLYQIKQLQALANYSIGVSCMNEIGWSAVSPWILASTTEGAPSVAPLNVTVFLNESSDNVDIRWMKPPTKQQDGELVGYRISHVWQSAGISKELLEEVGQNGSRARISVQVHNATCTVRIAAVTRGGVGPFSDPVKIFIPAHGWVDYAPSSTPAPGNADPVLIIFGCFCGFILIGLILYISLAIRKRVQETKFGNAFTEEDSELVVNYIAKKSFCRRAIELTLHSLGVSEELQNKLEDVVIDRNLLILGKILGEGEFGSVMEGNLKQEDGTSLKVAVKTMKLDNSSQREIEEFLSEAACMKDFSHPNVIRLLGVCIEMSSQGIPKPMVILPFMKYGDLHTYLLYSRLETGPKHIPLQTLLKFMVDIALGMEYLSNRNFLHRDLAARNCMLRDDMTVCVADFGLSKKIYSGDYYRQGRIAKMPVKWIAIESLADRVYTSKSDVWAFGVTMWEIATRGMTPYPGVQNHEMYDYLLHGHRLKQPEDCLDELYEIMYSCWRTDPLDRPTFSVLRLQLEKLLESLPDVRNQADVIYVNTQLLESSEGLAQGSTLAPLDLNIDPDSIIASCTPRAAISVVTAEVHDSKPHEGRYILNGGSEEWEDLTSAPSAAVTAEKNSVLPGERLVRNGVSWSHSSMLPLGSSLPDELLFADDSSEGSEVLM
Chain of Fyn (P06241 whole entry, looked up): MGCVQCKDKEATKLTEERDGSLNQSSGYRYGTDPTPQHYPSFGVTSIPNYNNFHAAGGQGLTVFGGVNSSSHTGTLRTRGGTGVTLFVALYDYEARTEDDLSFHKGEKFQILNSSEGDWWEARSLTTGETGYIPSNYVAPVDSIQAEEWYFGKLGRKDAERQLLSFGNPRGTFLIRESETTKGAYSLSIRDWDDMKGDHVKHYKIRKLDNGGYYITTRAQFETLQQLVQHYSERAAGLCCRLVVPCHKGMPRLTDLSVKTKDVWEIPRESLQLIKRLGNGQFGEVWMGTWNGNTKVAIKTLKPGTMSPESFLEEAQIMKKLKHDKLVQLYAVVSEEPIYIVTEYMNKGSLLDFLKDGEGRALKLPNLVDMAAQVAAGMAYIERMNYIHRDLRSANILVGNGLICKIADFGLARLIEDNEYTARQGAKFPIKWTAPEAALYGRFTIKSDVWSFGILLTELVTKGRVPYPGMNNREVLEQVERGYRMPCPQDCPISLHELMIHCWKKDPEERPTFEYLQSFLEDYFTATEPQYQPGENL
Chain of FGFR3 (P22607 whole entry, looked up): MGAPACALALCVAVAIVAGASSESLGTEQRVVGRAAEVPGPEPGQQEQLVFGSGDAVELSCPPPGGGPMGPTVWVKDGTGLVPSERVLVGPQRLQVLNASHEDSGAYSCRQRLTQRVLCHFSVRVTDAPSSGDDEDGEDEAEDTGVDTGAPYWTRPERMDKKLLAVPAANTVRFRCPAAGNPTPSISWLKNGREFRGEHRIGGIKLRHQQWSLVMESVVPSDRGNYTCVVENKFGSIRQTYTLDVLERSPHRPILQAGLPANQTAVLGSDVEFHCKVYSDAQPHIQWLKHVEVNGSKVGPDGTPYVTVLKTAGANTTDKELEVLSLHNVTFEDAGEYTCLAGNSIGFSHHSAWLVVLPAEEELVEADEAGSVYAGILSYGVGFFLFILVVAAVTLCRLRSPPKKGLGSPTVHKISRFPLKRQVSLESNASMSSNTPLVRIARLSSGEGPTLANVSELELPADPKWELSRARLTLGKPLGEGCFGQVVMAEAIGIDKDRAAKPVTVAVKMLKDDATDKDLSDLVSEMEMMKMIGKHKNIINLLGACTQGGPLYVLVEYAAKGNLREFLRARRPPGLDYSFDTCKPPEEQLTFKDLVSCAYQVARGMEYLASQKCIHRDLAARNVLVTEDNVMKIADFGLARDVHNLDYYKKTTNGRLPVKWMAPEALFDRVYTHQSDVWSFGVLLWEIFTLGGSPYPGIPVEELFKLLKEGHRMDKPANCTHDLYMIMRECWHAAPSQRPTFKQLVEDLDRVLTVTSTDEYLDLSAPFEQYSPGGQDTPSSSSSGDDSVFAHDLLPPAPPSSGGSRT
Chain of Hck (P08631 whole entry, looked up): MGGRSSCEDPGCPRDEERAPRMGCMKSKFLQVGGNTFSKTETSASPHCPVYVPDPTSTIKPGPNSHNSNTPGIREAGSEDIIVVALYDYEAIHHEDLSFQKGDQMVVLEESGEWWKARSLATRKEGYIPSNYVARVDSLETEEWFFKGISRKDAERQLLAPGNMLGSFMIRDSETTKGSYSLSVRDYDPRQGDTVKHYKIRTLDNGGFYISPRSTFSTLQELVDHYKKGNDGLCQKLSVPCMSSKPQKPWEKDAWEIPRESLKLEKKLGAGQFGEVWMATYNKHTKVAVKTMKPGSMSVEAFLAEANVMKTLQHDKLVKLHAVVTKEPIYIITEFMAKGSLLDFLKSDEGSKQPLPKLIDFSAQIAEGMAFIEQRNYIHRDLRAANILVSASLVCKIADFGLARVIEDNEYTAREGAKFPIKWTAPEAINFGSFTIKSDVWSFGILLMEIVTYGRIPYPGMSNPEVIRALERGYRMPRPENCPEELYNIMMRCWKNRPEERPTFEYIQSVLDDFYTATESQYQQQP

Sequence | phosphorylation enrichment [1] | phosphorylation enrichment [2] | phosphorylation enrichment [3] | phosphorylation enrichment [4] | phosphorylation enrichment [5] | phosphorylation enrichment [6] | phosphorylation enrichment [7] | phosphorylation enrichment [8] | phosphorylation enrichment [9] | phosphorylation enrichment [10] | phosphorylation enrichment [11] | phosphorylation enrichment [12] | phosphorylation enrichment [13] | SH2 binding enrichment [14] | SH2 binding enrichment [15] | SH2 binding enrichment [16]
KDFTKYVAFIE [KDM4B_Y31_N29T_YF] | 0.879 | 0.457 | 0.849 | 0.521 | 0.422 | 0.442 | 0.626 | 0.481 | 0.614 | 0.55 | 0.462 | 0.623 | 1.06 | 1.79 | 0.894 | 0.674
KDFTKYVAYIE [KDM4B_Y31_N29T] | 0.921 | 0.523 | 0.864 | 0.541 | 0.434 | 0.604 | 0.584 | 0.465 | 0.679 | 0.651 | 0.558 | 0.734 | 1.07 | 2.42 | 0.966 | 0.608
KDHPDYKYQLR [SOX10_Y171_P175L] | 0.656 | 0.411 | 0.665 | 0.403 | 0.418 | 0.432 | 0.395 | 0.38 | 0.696 | 0.417 | 0.431 | 0.491 | 0.704 | 0.793 | 0.93 | 0.631
KEAALYPHLLP [SQSTM1_Y383_P387L] | 0.649 | 0.366 | 0.648 | 0.405 | 0.419 | 0.512 | 0.544 | 0.432 | 0.549 | 0.427 | 0.438 | 0.481 | 0.757 | 0.645 | 0.87 | 0.436
KEIHAYRKLLE [LMNA_Y376_M371K] | 0.59 | 0.506 | 0.63 | 0.344 | 0.468 | 0.429 | 0.481 | 0.414 | 0.489 | 0.397 | 0.476 | 0.487 | 0.76 | 0.569 | 0.68 | 0.459
KENITYMKREQ [L1TD1_Y24] | 0.828 | 0.58 | 0.827 | 0.443 | 0.431 | 0.462 | 0.514 | 0.453 | 0.703 | 0.498 | 0.554 | 0.554 | 1.05 | 0.692 | 0.809 | 0.498
KFFRVYQGQQP [MUTYH_Y494_V490F] | 0.627 | 0.457 | 0.898 | 0.623 | 0.431 | 0.592 | 0.507 | 0.447 | 0.652 | 0.452 | 0.495 | 0.78 | 0.842 | 0.596 | 0.953 | 0.633
KFMVGYEMIAQ [GALT_Y339_L342I] | 0.956 | 0.427 | 1.03 | 0.444 | 0.487 | 0.492 | 0.569 | 0.457 | 0.696 | 0.58 | 0.507 | 0.723 | 1.06 | 0.884 | 0.914 | 7.36
KGEDFYCVTYH [FHL1_Y149_C153Y] | 1.25 | 2.37 | 1.84 | 2.6 | 2.15 | 1.1 | 1.12 | 3.58 | 1.04 | 1.09 | 1.71 | 1.22 | 1.5 | 0.484 | 0.562 | 0.39
KGERGYPGTPG [COL4A1_Y348] | 0.359 | 0.419 | 0.384 | 0.311 | 0.399 | 0.354 | 0.372 | 0.356 | 0.42 | 0.336 | 0.38 | 0.406 | 0.433 | 0.77 | 0.832 | 0.482
KGSEGYLAATF [NF1_Y2503_YF] | 0.709 | 0.564 | 0.654 | 0.501 | 0.45 | 0.444 | 0.402 | 0.514 | 0.634 | 0.41 | 0.416 | 0.549 | 0.658 | 0.847 | 0.766 | 0.474
KHASTYREAAT [DEAF1_Y483] | 0.356 | 0.307 | 0.425 | 0.322 | 0.363 | 0.339 | 0.324 | 0.359 | 0.52 | 0.328 | 0.344 | 0.39 | 0.518 | 0.755 | 0.874 | 0.625
KHGGNYVPAPE [OSCP1_Y237_K242E] | 0.471 | 0.405 | 0.754 | 0.398 | 0.36 | 0.403 | 0.471 | 0.345 | 0.455 | 0.369 | 0.325 | 0.477 | 0.626 | 0.614 | 0.619 | 0.456
KIFPEYLSNWT [AIFM1_Y347_L344F] | 1.18 | 0.479 | 0.914 | 0.43 | 0.502 | 0.811 | 0.512 | 0.47 | 0.657 | 0.513 | 0.488 | 0.721 | 0.916 | 0.614 | 0.944 | 0.628
KINKMYSDHAM | 0.5 | 0.416 | 0.495 | 0.349 | 0.408 | 0.315 | 0.285 | 0.432 | 0.499 | 0.351 | 0.308 | 0.364 | 0.463 | 0.602 | 0.705 | 0.354
KKFPDYIQIAM [SGMS2_Y59_YF] | 1.07 | 0.556 | 1.13 | 0.468 | 0.427 | 8.61 | 0.672 | 0.461 | 0.7 | 4.26 | 0.496 | 5.17 | 1.06 | 0.946 | 0.93 | 0.76
KKFVPYYDLFM [IPO5_Y530_E525K] | 1.07 | 2.32 | 0.895 | 2.06 | 1.3 | 4.49 | 4.22 | 6.5 | 0.686 | 4.25 | 2.1 | 3.24 | 1.05 | 1.14 | 1.6 | 2.43
